Publication PMC5888579

Biological target: FEN1 (human, UniProt P39748 2-380)
Test: smFRET kinetics

Sequence of FEN1 (P39748 2-380): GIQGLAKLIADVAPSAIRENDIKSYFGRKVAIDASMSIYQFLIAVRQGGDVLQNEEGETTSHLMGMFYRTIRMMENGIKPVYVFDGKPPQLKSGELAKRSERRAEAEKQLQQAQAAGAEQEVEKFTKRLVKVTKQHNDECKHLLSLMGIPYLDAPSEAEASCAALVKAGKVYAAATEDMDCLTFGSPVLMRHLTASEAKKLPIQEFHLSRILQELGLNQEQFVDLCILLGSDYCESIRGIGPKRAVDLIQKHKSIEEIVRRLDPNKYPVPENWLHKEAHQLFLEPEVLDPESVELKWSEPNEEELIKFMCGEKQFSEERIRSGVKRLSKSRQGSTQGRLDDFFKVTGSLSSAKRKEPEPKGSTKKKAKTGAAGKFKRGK

B1: NickInternal (dsDNA)
DNA 1: TGACCGTGTTTGACGGTCGTGAGGAGGAAAGTTCCTCCTACGGCAG
DNA 2: CTGCCGTAGGAGGAACTTTCCTCCTC
DNA 3: ACGACCGTCAAACAACGGTCA
modifications: 5' phosphate at nick; biotin; iCy3 internal in template
  Kd: 62 ± 9 nM
